In article PMC2897144 (Hypertension, 2009):

B1: caveolin-1 (natural protein, human (endogenous in RPTCs), UniProt Q03135 1-178, looked up)
chain: MSGGKYVDSEGHLYTVPIREQGNIYKPNNKAMADELSEKQVYDAHTKEIDLVNRDPKHLNDDVVKIDFEDVIAEPEGTHSFDGIWKASFTTFTVTKYWFYRLLSALFGIPMALIWGIYFAILSFLHIWAVVPCIKSFLIEIQCISRVYSIYVHTVCDPLFEAVGKIFSNVRINLQKEI
B2: G protein-coupled receptor kinase type 4 (enzyme, human (endogenous in RPTCs), UniProt P32298 1-578, looked up)
chain: MELENIVANSLLLKARQGGYGKKSGRSKKWKEILTLPPVSQCSELRHSIEKDYSSLCDKQPIGRRLFRQFCDTKPTLKRHIEFLDAVAEYEVADDEDRSDCGLSILDRFFNDKLAAPLPEIPPDVVTECRLGLKEENPSKKAFEECTRVAHNYLRGEPFEEYQESSYFSQFLQWKWLERQPVTKNTFRHYRVLGKGGFGEVCACQVRATGKMYACKKLQKKRIKKRKGEAMALNEKRILEKVQSRFVVSLAYAYETKDALCLVLTIMNGGDLKFHIYNLGNPGFDEQRAVFYAAELCCGLEDLQRERIVYRDLKPENILLDDRGHIRISDLGLATEIPEGQRVRGRVGTVGYMAPEVVNNEKYTFSPDWWGLGCLIYEMIQGHSPFKKYKEKVKWEEVDQRIKNDTEEYSEKFSEDAKSICRMLLTKNPSKRLGCRGEGAAGVKQHPVFKDINFRRLEANMLEPPFCPDPHAVYCKDVLDIEQFSVVKGIYLDTADEDFYARFATGCVSIPWQNEMIESGCFKDINKSESEEALPLDLDKNIHTPVSRPNRGFFYRLFRRGGCLTMVPSEKEVEPKQC

Legend:
[1] = target: B2; experiment: co-IP
caveolin-1 = target: B1; experiment: co-IP

Binder	decrease of co-immunoprecipitation in uRPTCs relative to nRPTCs [1] [%]	decrease of co-immunoprecipitation in uRPTCs relative to nRPTCs (caveolin-1) [%]
B1	55.6	
B2		58
